# Assay results as given in paper doi:10.1101/776187.
# What was measured:
# [1] = biological target: dynactin (bovine (purified from bovine brain))
# [2] = biological target: human cytoplasmic dynein (recombinant complex of DHC, DIC, DLIC, Tctex, Robl and LC8) (human) (UniProt Q14204)
substance,measurement,setting,value
Drosophila BicD-coiled-coil domain 1 (truncated N-terminal fragment of Dm BicD) (domain or fragment),"processive run length of DDB^CC1 on microtubules, single molecule TIRF",[1],2.8 µm
same,"speed of DDB^CC1 on microtubules, single molecule TIRF",[1],0.41 µm/s
same,"processive run length of DDB^CC1 on microtubules, single molecule TIRF",[2],2.8 µm
same,"speed of DDB^CC1 on microtubules, single molecule TIRF",[2],0.41 µm/s
